Measurements reported in patent US20210038739A1 (JCR PHARMACEUTICALS, published 2021).

How the values were obtained:
[1] = molecular target: T1, recombinant human TfR extracellular region with N-terminal histidine tag (Sino Biological Inc.) (human, UniProt P02786 89-760); assay: BLI (Octet RED96), His-tagged TfR ECD loaded on Ni-NTA sensor, antibody in solution; human TfR
T1 construct: also called r human TfR; r human TfR-ECD (Histag); not shown: Histidine tag at the N-terminus
Experimental: (§1) Purified anti-hTfR antibody No. 3 was diluted in two steps with HBS-P+ (10 mM HEPES containing 150 mM NaCl, 50 μM EDTA and 0.05% Surfactant P20), respectively, to prepare antibody solutions of 7 different concentrations, 0.78125 to 50 nM (0.117 to 7.5 μg/mL). These antibody solutions were used as sample solutions. The r human and r monkey TfRs were respectively diluted with HBS-P+ to prepare 25 pg/mL solutions, which were used as r human TfR-ECD (Histag) solution and r monkey TfR-ECD (Histag) solution, respectively.
(§2) Each of the sample solutions prepared above by 2-fold dilution steps was added, 200 μL/well, to a 96-well plate, black (Greiner Bio-One Inc.). Each of the r human TfR-ECD (Histag) solution and the r monkey TfR-ECD (Histag) solutions prepared above was added, 200 μL/well, to predetermined wells. To respective wells for baseline, dissociation and washing were added HBS-P+, 200 μL/well. To wells for regeneration were added 10 mM Glycine-HCl (pH 1.7), 200 μL/well. To wells for activation was added 0.5 mM NiCl₂ solution, 200 μL/well. The plate and biosensor (Biosensor/Ni-NTA: ForteBio Inc., a division of Pall Corporation) were set in the prescribed positions of Octet RED96.
(§3) The measurement was performed at 25 to 30° C.

[2] = molecular target: T2, recombinant monkey TfR extracellular region (Macaca fascicularis) with N-terminal histidine tag (Sino … (Macaca fascicularis (crab-eating …, UniProt Q5RDH6 89-760 (Pongo abelii entry)))); assay: BLI (Octet RED96), His-tagged TfR ECD loaded on Ni-NTA sensor, antibody in solution; monkey TfR
T2 construct: also called r monkey TfR; r monkey TfR-ECD (Histag); not shown: Histidine tag at the N-terminus
T2 chain: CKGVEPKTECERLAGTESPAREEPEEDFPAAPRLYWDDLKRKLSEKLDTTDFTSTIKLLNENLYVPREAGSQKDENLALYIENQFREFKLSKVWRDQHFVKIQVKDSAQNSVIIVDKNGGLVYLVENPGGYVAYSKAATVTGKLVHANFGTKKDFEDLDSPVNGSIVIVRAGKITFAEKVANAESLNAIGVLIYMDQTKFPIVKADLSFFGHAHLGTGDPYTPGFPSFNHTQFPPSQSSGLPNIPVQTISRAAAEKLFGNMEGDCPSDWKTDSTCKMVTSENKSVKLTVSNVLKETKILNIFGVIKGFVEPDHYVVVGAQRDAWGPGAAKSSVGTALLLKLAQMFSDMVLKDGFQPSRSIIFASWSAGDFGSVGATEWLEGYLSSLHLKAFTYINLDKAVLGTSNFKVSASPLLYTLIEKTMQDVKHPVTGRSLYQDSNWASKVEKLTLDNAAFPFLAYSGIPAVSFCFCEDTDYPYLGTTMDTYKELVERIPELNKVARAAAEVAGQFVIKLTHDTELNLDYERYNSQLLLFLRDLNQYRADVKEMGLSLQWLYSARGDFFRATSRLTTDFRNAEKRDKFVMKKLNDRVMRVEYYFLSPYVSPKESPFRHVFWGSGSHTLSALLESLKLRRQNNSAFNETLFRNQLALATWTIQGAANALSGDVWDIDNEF
Experimental: as §1, §2, §3

[3] = molecular target: T1, recombinant human TfR extracellular …; assay: BLI (Octet RED96) by the method of Example 7
[4] = molecular target: T2, recombinant monkey TfR extracellular …; assay: BLI (Octet RED96) by the method of Example 7

B1: mouse anti-hTfR antibody No. 3 (antibody, V domains shown)
VH: EVQLQESGAELVRPGTSVKISCKASGYTFMNYWLGWVKQRPGHGLEWIGDIYPGGDYPTYSEKFKVKAILTADTSSSSVYLHLSSLTSEDSAVYFCARSGNYDEVAYWGQGTLVTVST
VL: DIVMTQTTLSLPVSLGDQASISCRSSQSLVHSNGNTYLHWYLQKPGQSPKLLIYKVSNRFSGVPDRFSGSGSGTDFTLKISRVEAEDLGVFFCSQSTHVPWTFGGGTKLEIKR
notes: Mouse hybridoma antibody; also called anti-hTfR No. 3; antibody of Clone 3 line
- Kd [1]: ≤ 1 pM
- Kd [2]: ≤ 1 pM

B2: humanized anti-hTfR antibody No. 3 (antibody, human IgG4 S228P, kappa, V domains shown)
VH: EVQLVQSGAEVKKPGESLKISCKGSGYSFTNYWLGWVRQMPGKGLEWMGDIYPGGDYPTYSEKFKVQVTISADKSISTAYLQWSSLKASDTAMYYCARSGNYDEVAYWGQGTLVTVSS
VL: DIVMTQTPLSLSVTPGQPASISCRSSQSLVHSNGNTYLHWYLQKPGQSPQLLIYKVSNRFSGVPDRFSGSGSGTDFTLKISRVEAEDVGVYYCSQSTHVPWTFGQGTKVEIKR
notes: The heavy chain is of IgG4 type; also called humanized antibody of anti-hTfR antibody No. 3
- Kd [3]: ≤ 1 pM
- Kd [4]: ~1000 pM
